Consider 5 molecules from paper PMC8979947.

Assay [1] concerns the target talin R3-IVVI domain.
For assay [2], the target named is talin R3-IVVI domain. The source holds these as a separate data set.
In assay [3] the target is talin R3-IVVI domain. This is another data set of the same source.
Assay [4] concerns the target talin R3-IVVI domain. This is another data set of the same source.

Take “DnaJ (from UniProt P08622 1-376) (natural protein)”: the intersection force (equal unfolding and refolding rates) of R3-IVVI, force-clamp chevron plot, with 1 µM DnaJ; control 9.7 pN with talin R3-IVVI domain [1] was 7.9 pN.
In turn, “DnaK (from UniProt P0A6Y8 1-638) (natural protein)” displayed an intersection force (equal unfolding and refolding rates) of R3-IVVI, force-clamp chevron plot, with 3 µM apo-DnaK; control 9.7 pN in the assay with talin R3-IVVI domain [1] of 6 pN. Further, in the assay with talin R3-IVVI domain [2], the unfolding force (confirmed as intersection force of the chevron plot) of R3-IVVI with DnaK + DnaJ + ADP (DnaKJ-ADP) came out at 6.3 pN; the unfolding force (confirmed as intersection force of the chevron plot) of R3-IVVI with DnaK and ATP; ~6 pN with apo-DnaK worked out at 7.6 pN.
The molecule “Hsp40, human recombinant protein (from UniProt P25685 1-340) (natural protein)” yielded an intersection force of R3-IVVI, chevron plot, with Hsp40; control 9.7 pN with talin R3-IVVI domain [3] of 7.8 pN.
“Hsp70, human recombinant protein (from UniProt P0DMV8 1-641) (natural protein)” displayed an intersection force of R3-IVVI, chevron plot, with Hsp70; control 9.7 pN in the assay with talin R3-IVVI domain [3] of 7.2 pN. In the assay with talin R3-IVVI domain [4], this molecule displayed a half-point force of R3-IVVI with Hsp70 of 7.2 pN; a half-point force of R3-IVVI with Hsp70 and its inhibitor pifithrin-µ (PFT-µ, binds the substrate-binding domain of Hsp70) of 9.5 pN.

B1: oxidized DsbA (enzyme)
chain: AQYEDGKQYTTLEKPVAGAPQVLEFFSFFCPHCYQFEEVLHISDNVKKKLPEGVKMTKYHVNFMGGDLGKDLTQAWAVAMALGVEDKVTVPLFEGVQKTQTIRSASDIRDVFINAGIKGEEYDAAWNSFVVKSLVAQQEKAAADVQLRGVPAMFVNGKYQLNPQGMDTSNMDVFVQQYADTVKYLSEKK
modifications: oxidized (0.3% H2O2 overnight)
In turn, B1 returned an intersection force (equal unfolding and refolding rates) of R3-IVVI, force-clamp chevron plot, with 60 µM DsbA; control 9.7 pN with talin R3-IVVI domain [1] of 14.9 pN.
